The record followed here is the RNAGym collection of RNA variant scans (doi:10.1021/acssynbio.7b00057).

B1: Pistol ribozyme (parent)
chain: GGGUCGUUGUUCCAUAAUCGCGUGGAUAUGGCACGCAAGUUUCUACCGGGCACCGUAAAUGUCCGACUGGAGCCGUUCGGGCGGCUAUAAACAGACCUCAGGCCCGAAGCGUGGCGGCACCUGCCGCCGGUGGUAAAAAAGAUCGGAAGAGCACACGUCU

In this series the parent is B1. Description: aptazyme ON/OFF ratio, guanine; higher = stronger switching; co-transcriptional cleavage with and without guanine.
With U8C G9U U11C C12G C13U, the “aptazyme ON/OFF ratio” value turned out to be 1.15.

Turning to U8C G9U U11C C12G C13A, the “aptazyme ON/OFF ratio” value worked out at 1.13.

On to U8C G9U U11C C12G C13G, for which the “aptazyme ON/OFF ratio” value turned out to be 1.03.

As to U8C U10C C12U C13U, the “aptazyme ON/OFF ratio” value amounted to 1.41.

Regarding U8C U10C C12U C13A, the “aptazyme ON/OFF ratio” value was 1.21.

Take U8C U10C C12U C13G: the “aptazyme ON/OFF ratio” value was determined as 1.26.

As to U8C G9U U10G C12U C13A, the “aptazyme ON/OFF ratio” value was found to be 1.28.

Regarding U8C G9U U10G C12U C13U, the “aptazyme ON/OFF ratio” value stood at 1.01.

On to U8C G9U U10G C12U C13G, for which the “aptazyme ON/OFF ratio” value was found to be 1.11.

As to U8C G9U U11A C12G, the “aptazyme ON/OFF ratio” value was determined as 1.36.

For U8C G9U U11A C12A, the “aptazyme ON/OFF ratio” value amounted to 1.37.

Consider U8C G9U U11A C12U, for which the “aptazyme ON/OFF ratio” value is 1.39.

For U8C G9U U10G C12U, the “aptazyme ON/OFF ratio” value amounted to 1.35.

As to U8C G9U U10G C12G, the “aptazyme ON/OFF ratio” value came out at 1.6.

Consider U8C G9U U10G C12A, for which the “aptazyme ON/OFF ratio” value worked out at 1.66.

U8C U10A C12G: the “aptazyme ON/OFF ratio” value was found to be 1.21.

U8C U10A C12A: the “aptazyme ON/OFF ratio” value was determined as 1.29.

In the case of U8C U10A C12U, the “aptazyme ON/OFF ratio” value worked out at 1.1.

On to U8C U10A U11A C12U, for which the “aptazyme ON/OFF ratio” value was found to be 1.22.

On to U8C U10A U11A C12A, for which the “aptazyme ON/OFF ratio” value turned out to be 1.17.

On to U8C U10A U11A C12G, for which the “aptazyme ON/OFF ratio” value stood at 1.28.

Turning to U8C U10A U11G, the “aptazyme ON/OFF ratio” value was 1.29.

As to U8C U10A U11A, the “aptazyme ON/OFF ratio” value amounted to 1.18.

Regarding U8C U10A U11C, the “aptazyme ON/OFF ratio” value is 1.02.

U8C U10G C12A C13A: the “aptazyme ON/OFF ratio” value worked out at 1.11.

U8C G9U U10A U11G C12G C13U: the “aptazyme ON/OFF ratio” value was 1.14.

Regarding U8C G9U U10A U11G C12G C13A, the “aptazyme ON/OFF ratio” value was determined as 1.13.

U8C G9U U10A U11G C12G C13G: the “aptazyme ON/OFF ratio” value stood at 1.12.

Regarding U8C G9U U10G U11A C12G C13U, the “aptazyme ON/OFF ratio” value is 1.12.

Turning to U8C G9U U10G U11A C12G C13A, the “aptazyme ON/OFF ratio” value is 1.16.

For U8C G9U U10G U11A C12G C13G, the “aptazyme ON/OFF ratio” value is 1.33.

Regarding U8C G9U U10G C13U, the “aptazyme ON/OFF ratio” value amounted to 1.67.

As to U8C G9U U10G C13G, the “aptazyme ON/OFF ratio” value was found to be 1.21.

As for U8C G9U U10G C13A, the “aptazyme ON/OFF ratio” value amounted to 1.42.

Turning to U8C G9U U10C U11A C13A, the “aptazyme ON/OFF ratio” value came to 1.13.

Turning to U8C G9U U10C U11A C13G, the “aptazyme ON/OFF ratio” value turned out to be 1.05.

Turning to U8C G9U U10C U11A C13U, the “aptazyme ON/OFF ratio” value amounted to 1.16.

U8C G9U U10G U11A C12U C13A: the “aptazyme ON/OFF ratio” value amounted to 1.24.

On to U8C G9U U10G U11A C12U C13G, for which the “aptazyme ON/OFF ratio” value turned out to be 1.16.

As for U8C G9U U10G U11A C12U C13U, the “aptazyme ON/OFF ratio” value was determined as 1.31.

U8C G9U U11A C12U C13U: the “aptazyme ON/OFF ratio” value amounted to 1.17.

As to U8C G9U U11A C12U C13A, the “aptazyme ON/OFF ratio” value amounted to 1.36.

As to U8C G9U U11A C12U C13G, the “aptazyme ON/OFF ratio” value is 1.12.

With U8C G9U U10G, the “aptazyme ON/OFF ratio” value worked out at 2.84.

Take U8C G9U U10C: the “aptazyme ON/OFF ratio” value was determined as 1.87.

Turning to U8C U10C C13G, the “aptazyme ON/OFF ratio” value stood at 1.26.

Consider U8C U10C C13U, for which the “aptazyme ON/OFF ratio” value was found to be 1.51.

As to U8C U10C C13A, the “aptazyme ON/OFF ratio” value was determined as 1.07.

Consider U8C G9U U10C U11C C12A C13A, for which the “aptazyme ON/OFF ratio” value came to 1.09.

Regarding U8C G9U U10C U11C C12A C13G, the “aptazyme ON/OFF ratio” value is 1.62.

For U8C G9U U10C U11C C12A C13U, the “aptazyme ON/OFF ratio” value stood at 1.07.

With U8C G9U U10G U11A, the “aptazyme ON/OFF ratio” value came to 1.13.

As for U8C G9U U10G U11G, the “aptazyme ON/OFF ratio” value is 2.19.

Consider U8C G9U U10G U11C, for which the “aptazyme ON/OFF ratio” value worked out at 1.13.

As for U8C U10C C12G C13G, the “aptazyme ON/OFF ratio” value came to 1.29.

Take U8C U10C C12G C13U: the “aptazyme ON/OFF ratio” value stood at 1.33.

In the case of U8C U10C C12G C13A, the “aptazyme ON/OFF ratio” value came to 1.37.

Turning to U8C U10A U11G C12U C13A, the “aptazyme ON/OFF ratio” value was 1.32.

For U8C U10A U11G C12U C13U, the “aptazyme ON/OFF ratio” value was found to be 1.27.

Take U8C U10A U11G C12U C13G: the “aptazyme ON/OFF ratio” value is 1.22.

On to U8C U10A U11G C12A C13G, for which the “aptazyme ON/OFF ratio” value came to 1.26.

As for U8C U10A U11G C12A C13A, the “aptazyme ON/OFF ratio” value came out at 1.24.

As for U8C U10A U11G C12A C13U, the “aptazyme ON/OFF ratio” value amounted to 1.33.

As for U8C G9U U11A, the “aptazyme ON/OFF ratio” value amounted to 1.35.

As for U8C G9U U11C, the “aptazyme ON/OFF ratio” value worked out at 1.07.

In the case of U8C G9U U11G, the “aptazyme ON/OFF ratio” value is 1.48.

For U8C G9U U10C U11A C12G C13A, the “aptazyme ON/OFF ratio” value is 1.08.

U8C G9U U10C U11A C12G C13U: the “aptazyme ON/OFF ratio” value is 1.08.

U8C G9U U10C U11A C12G C13G: the “aptazyme ON/OFF ratio” value came to 1.11.

Take U8C G9U U10G U11A C13G: the “aptazyme ON/OFF ratio” value was 1.13.

Regarding U8C G9U U10G U11A C13A, the “aptazyme ON/OFF ratio” value was 1.1.

Regarding U8C G9U U10G U11A C13U, the “aptazyme ON/OFF ratio” value was found to be 1.14.

For U8C G9U U10C U11A C12U C13U, the “aptazyme ON/OFF ratio” value was 1.2.

For U8C G9U U10C U11A C12U C13A, the “aptazyme ON/OFF ratio” value turned out to be 1.13.

As for U8C G9U U10C U11A C12U C13G, the “aptazyme ON/OFF ratio” value stood at 1.09.

With U8C G9U U11G C12A C13A, the “aptazyme ON/OFF ratio” value is 1.16.

With U8C G9U U11G C12A C13G, the “aptazyme ON/OFF ratio” value was determined as 1.18.

U8C G9U U11G C12A C13U: the “aptazyme ON/OFF ratio” value was found to be 1.26.

Regarding U8C U10A C13U, the “aptazyme ON/OFF ratio” value was 1.05.

For U8C U10A C13A, the “aptazyme ON/OFF ratio” value amounted to 1.07.

With U8C U10A C13G, the “aptazyme ON/OFF ratio” value is 1.05.

In the case of U8C U10A C12A C13A, the “aptazyme ON/OFF ratio” value came out at 1.26.

Turning to U8C U10A C12A C13U, the “aptazyme ON/OFF ratio” value turned out to be 1.18.
